From patent US12187807B2, “Antibody molecules to C5AR1 and uses thereof” (Visterra, Inc., priority 2020, dated 2025)

T1: C5aR1 (Homo sapiens, UniProt P21730)
T1 sequence (P21730 1-350): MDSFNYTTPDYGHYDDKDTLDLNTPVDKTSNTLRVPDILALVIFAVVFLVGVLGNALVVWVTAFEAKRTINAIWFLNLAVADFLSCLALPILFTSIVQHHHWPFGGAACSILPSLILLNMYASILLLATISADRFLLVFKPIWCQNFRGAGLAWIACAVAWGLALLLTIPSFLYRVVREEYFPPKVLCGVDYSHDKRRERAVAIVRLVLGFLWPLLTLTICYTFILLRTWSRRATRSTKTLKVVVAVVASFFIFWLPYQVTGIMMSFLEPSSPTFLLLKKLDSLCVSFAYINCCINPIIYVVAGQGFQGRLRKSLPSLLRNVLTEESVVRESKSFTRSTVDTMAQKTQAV

T2: human C5aR1 transiently expressed on the surface of Expi293 cells (Homo sapiens, UniProt P21730, K279N)
T2 construct: expressed in transfected cells; host or cells: Expi293 cells, transient
T2 sequence (P21730 with tags, fused parts or gaps K279N limits assumed): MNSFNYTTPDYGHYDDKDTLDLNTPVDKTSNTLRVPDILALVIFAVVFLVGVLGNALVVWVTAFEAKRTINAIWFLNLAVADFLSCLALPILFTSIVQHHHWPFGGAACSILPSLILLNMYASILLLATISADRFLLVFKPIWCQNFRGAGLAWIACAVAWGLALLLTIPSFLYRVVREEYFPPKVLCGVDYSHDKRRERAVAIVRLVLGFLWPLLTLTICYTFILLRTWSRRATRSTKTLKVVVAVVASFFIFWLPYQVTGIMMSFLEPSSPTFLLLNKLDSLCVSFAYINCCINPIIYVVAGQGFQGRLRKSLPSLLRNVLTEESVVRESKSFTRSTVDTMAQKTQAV


Legend:
[1] = molecular target: T1, C5aR1; assay: GeneBLAzer reporter assay (C5aR1 mediated Gα signaling); type: cell-based; parameters: host or cells: vendor's C5aR1 GeneBLAzer reporter cell line; details: 10 nM of antibody, 10 nM C5a
Description: In addition, a GeneBLAzer reporter assay was used, which mimics the calcium flux assay. The GeneBLAzer assay kit and C5aR1 cell line were commercially available from Thermo Fisher (Catalog #K1544). The assay was performed as recommend by the manufacturer. Briefly, antibodies or antagonists were incubated for 30 minutes at 37° C. C5a was then added to the cells and incubated at 37° C. for an additional 4-5 hours. Beta-lactamase substrate was then added and incubated for 2 hours at room temperature. Fluorescent measurements for each well with an excitation/emission of 409/460 (blue) and 409/530 (green) were measured. An increase in the blue to green ratio was proportional to C5aR1 activation and was used to calculate the percent of activation for the cells in each well.
Exemplary anti-C5aR1 antibodies generated as described in Example 1 were screened for antagonist activity against human C5aR1 using the GeneBLAzer assay, as described in Example 1. Briefly, cells were pre-incubated with 10 nM of antibody followed by addition of 10 nM C5a. The engineered induction of beta-lactamase expression by C5a-C5aR1 signaling was measured using the BLA substrate and calculating the ratio of blue and green fluorescence.

[2] = molecular target: T2, human C5aR1 transiently expressed on the surface of Expi293 cells; assay: Cell surface binding (flow cytometry), Expi293 cells transiently expressing human C5aR1; details: staining with 100 nM of antibody
Description: (§1) Follow up screening to ensure specificity was performed by measuring cell surface binding to cells expressing, for example, human C5aR1, human C5aR2, mouse C5aR1, and control cells that were mock transfected. Briefly, cell surface binding was performed on various C5aR1 expressing cell lines (transiently expressed Expi293 cells, stable C5aR1-U937 cells, and neutrophils isolated from whole blood). Briefly, a titration of antibody diluted in flow buffer (1×PBS with 2% fetal bovine serum) was incubated with cells for 1 hour at 4° C. Cells were washed twice with flow buffer. Anti-human-APC secondary antibody was diluted 1:400 in flow buffer and incubated with cells for 30 minutes. Cells were washed twice with flow buffer and resuspended in 100 μL of flow buffer. Fluorescence was measured using the iQue Screen Plus flow cytometer.

[3] = test system: control cells that were mock transfected; assay: Cell surface binding (flow cytometry), mock transfected Expi293 control cells; details: staining with 100 nM of antibody
Description: as §1

| antagonism of C5aR1 compared to reference antibodies or to Avacopan [1] | Cell surface binding, Human C5aR1, geometric mean fluorescent intensity [2] | Molecule | Cell surface binding, Mock transfection, geometric mean fluorescent intensity [3] |
| --- | --- | --- | --- |
| comparable | – | clone 322: anti-C5aR1 Site I antibody; VH SEQ ID NO: 491, VL SEQ ID NO: 551 (antibody, V domains shown) VH: QVQLQQSDAALVKPGASVKISCKASGHTFTDHAIHWVKQRPEQGLEWIGYISPGNGDIKYNDKFKGKATLTADKSSSTAYMQLNSLTPEDSAVYFCKGPLFVRGQYYITMDYWGQGTTVTVSS VL: DIVMTQSQKFMSTTVGDRVSITCKASQNVGAAVVWYQQKPGQSPKLLIYSASYRYSGVPDRFTGSGSGTDFTLTISNMQSEDLADYFCQQYNSFPLTFGGGTKLEIK | – |
| – | 223,156 | Clone_336_v2-1 (antibody, V domains shown) VH: QVQLKQSGPGLVQSSQSLSITCTVSGFSLISYGVHWVRQSPGKGLEWLGVIWSGGSTDYNAAFKSRLSITKDNSKSQVFFKMNSLQADDTAIYYCAKNSQLGNAMDYWGQGTTVTVSS VL: DIVMSQSPSSLAVSAGEKVTMSCKSSQSLLSSRTRKNYLAWYQQKPGQSPKLLIYWASTRESGVPDRFTGSGSGTDFTLTISSVQAEDLALYFCNQSYDLLTFGAGTKLEIK | 5,007 Clone_511v2 |
